In assay [1] the target is T1, Human B7-H3 (human, UniProt Q5ZPR3 29-466).
T1 chain: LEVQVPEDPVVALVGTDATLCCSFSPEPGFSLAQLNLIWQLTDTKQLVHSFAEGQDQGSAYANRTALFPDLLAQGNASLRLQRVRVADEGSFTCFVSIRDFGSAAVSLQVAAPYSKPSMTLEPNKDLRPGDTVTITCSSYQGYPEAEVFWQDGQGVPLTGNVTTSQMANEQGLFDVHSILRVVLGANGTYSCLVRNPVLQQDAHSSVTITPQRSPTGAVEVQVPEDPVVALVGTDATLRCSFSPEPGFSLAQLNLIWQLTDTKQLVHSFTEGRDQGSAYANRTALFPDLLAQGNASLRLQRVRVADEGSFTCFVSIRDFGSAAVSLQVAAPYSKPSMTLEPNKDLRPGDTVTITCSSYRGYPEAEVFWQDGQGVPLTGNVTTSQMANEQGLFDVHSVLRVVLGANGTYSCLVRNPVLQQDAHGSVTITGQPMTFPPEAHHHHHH
Kind of assay: SPR. (SPR reads the build-up and loss of mass on a sensor chip optically.)

For assay [2], the target named is T2, Canine B7-H3.
T2 chain: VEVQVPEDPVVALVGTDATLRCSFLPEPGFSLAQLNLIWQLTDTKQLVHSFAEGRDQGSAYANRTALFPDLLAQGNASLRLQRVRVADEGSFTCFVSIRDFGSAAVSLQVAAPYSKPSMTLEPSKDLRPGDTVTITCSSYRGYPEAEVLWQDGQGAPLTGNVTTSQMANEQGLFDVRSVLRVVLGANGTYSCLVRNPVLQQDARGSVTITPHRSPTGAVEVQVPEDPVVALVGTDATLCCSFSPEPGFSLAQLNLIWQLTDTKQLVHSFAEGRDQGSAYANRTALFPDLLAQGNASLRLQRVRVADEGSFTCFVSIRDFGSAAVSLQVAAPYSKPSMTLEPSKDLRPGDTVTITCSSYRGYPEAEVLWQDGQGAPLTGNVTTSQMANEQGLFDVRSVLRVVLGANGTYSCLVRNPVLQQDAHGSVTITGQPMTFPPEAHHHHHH
Put plainly: SPR.

Assay [3] addresses T3, soluble human B7-H3 with 6xHis tag at the carboxy terminus (human, UniProt Q5ZPR3 29-466).
T3 chain: T1 chain
Put plainly: SPR.

The target in assay [4] is T4, soluble canine B7-H3 with 6xHis tag at the carboxy terminus.
T4 chain: T2 chain
Put plainly: SPR.

In assay [5] the target is T5, soluble human B7-H3 with 6xHis tag at the carboxy terminus (human, UniProt Q5ZPR3 29-466).
T5 construct: extracellular domain; also called hB7-H3; human B7H3(4Ig)-His
T5 sequence: T1 chain
Put plainly: ELISA and SPR on soluble human B7-H3-His. How it is done:
Antibodies hBRCA84D and hBRCA69D were tested in an ELISA for binding to canine B7-H3. Briefly, soluble human B7-H3 and canine B7-H3 were expressed in CHO cells. Each soluble molecule was engineered to express a 6×His tag at the carboxy terminus to aid in purification of the expressed protein. The molecules were purified by nickel column chromatography using standard techniques. ELISA plates were coated with the soluble B7-H3 and allowed to dry. The plates were washed and blocked using standard ELISA techniques. The wells were probed with either hBRCA84D, hBRCA69D or a control hIgG. Secondary detection reagent was added and binding was determined As shown in FIG. 1A (hBRCA84D) and FIG. 1B (hBRCA69D), the antibodies were able to bind to soluble canine B7-H3 (cB7-H3). To determine binding affinity of the hBRCA84D and hBRCA69D antibodies to soluble canine B7-H3, SPR analysis was conducted. As shown in FIGS. 1C and 1D (hBRCA84D) and FIGS. 1E and 1F (BRCA69D) the binding affinities are similar to the binding of the antibodies to soluble human B7-H3 (shown in FIG. 1A and FIG. 1B, respectively).
On the technique in general: In an ELISA, binding on a coated surface is turned into a signal by an enzyme label.

B1: hBRCA84D (antibody, V domains shown)
VH: EVQLVESGGGLVQPGGSLRLSCAASGFTFSSFGMHWVRQAPGKGLEWVAYISSDSSAIYYADTVKGRFTISRDNAKNSLYLQMNSLRDEDTAVYYCGRGRENIYYGSRLDYWGQGTTVTVSS
VL: DIQLTQSPSFLSASVGDRVTITCKASQNVDTNVAWYQQKPGKAPKALIYSASYRYSGVPSRFSGSGSGTDFTLTISSLQPEDFATYYCQQYNNYPFTFGQGTKLEIKR
Usually Kd stands for the free concentration of one partner at which half of the binding sites on the other are occupied at equilibrium, for simple one-to-one binding. The low end stands for a tighter complex, the high end for a looser complex. In the case of B1, the equilibrium dissociation constant (Kd) was 45 nM in assay [1] and 39 nM in assay [2].

B2: hBRCA69D (humanized antibody BRCA69D) (antibody, V domains shown)
VH: QVQLVQSGAEVKKPGASVKVSCKASGYTFTSYWMQWVRQAPGQGLEWMGTIYPGDGDTRYTQKFKGRVTITADKSTSTAYMELSSLRSEDTAVYYCARRGIPRLWYFDVWGQGTTVTVSS
VL: DIQMTQSPSSLSASVGDRVTITCRASQDISNYLNWYQQKPGKAPKLLIYYTSRLHSGVPSRFSGSGSGTDFTLTISSLQPEDIATYYCQQGNTLPPTFGGGTKLEIK
notes: Residue limits are my derivation
Take B2: the Kd in assay [3] turned out to be 8.8 nM; in assay [4], 8.4 nM. Moreover, the binding result in assay [5] was “binds”.

Source of the values: patent publication US20140255407A1 (MacroGenics, published 2014).
